Laboratory results taken from paper PMC12167477, “Setdb1 and Atf7IP form a hetero-trimeric complex that blocks Setdb1 nuclear export” (The Journal of Biological Chemistry, 2025).

B3: biotinylated Avitag-MBP-Atf7IP(574-666) (domain or fragment, human, UniProt Q6VMQ6 574-666, looked up)
chain: EEEYEAEFQVKITAKGDINQKLQKVIQWLLEEKLCALQCAVFDKTLAELKTRVEKIECNKRHKTVLTELQAKIARLTKRFEAAKEDLKKRHEH
modifications: biotin on the AviTag (cultures supplemented with 40 uM biotin, birA co-expressed)
notes: The methods describe only the Avitag-MBP form as purified on its own; also called MBP-Atf71P; source: E. coli, co-expressed with birA and biotin, purified (MBPTrap, Superdex 200); not shown: AviTag, N-terminal, kept; MBP, N-terminal, kept

Experiments:
MBP-Setdb1(2-115) [1] = biological target: T1, MBP-Setdb1(2-115) (human, UniProt Q15047 2-115); assay: pull-down; three tagged proteins co-expressed in E. coli, complex purified sequentially by the his tag and then the strep tag; SDS-PAGE; conditions: partners not purified
T1 construct: The methods list the MBP tag of the vectors as AviTag-Mbp; also called MBP-Setdb1(2-114); not shown: MBP, N-terminal, kept

[2] = biological target: B3; assay: AlphaScreen or HTRF; AlphaScreen His-Detection kit: nickel chelate acceptor beads and streptavidin donor beads; both proteins at 20 nM, or one at 20 nM and the other 0 to 20 nM; 50 mM MOPS, 50 mM CHAPS, 50 mM NaF, 100 ug/ml BSA, pH 7; room temperature; triplicates; conditions: both partners purified
GST-Setdb1(2-115) = biological target: T2, GST-Setdb1(2-115) (human, UniProt Q15047 2-115); assay: pull-down; 0.5 uM GST-fusion immobilised on glutathione Sepharose beads; 1.5 uM hCrm1 with or without 4.5 uM RanGTP; with or without pre-incubation with MBP-Atf7IP(574-666) (3-fold or 15-fold excess); 20 mM HEPES 7.4, 110 mM potassium acetate, 2 mM magnesium acetate, 10% glycerol, 2 mM DTT, 0.005% Tween20; Coomassie SDS-PAGE; conditions: both partners purified
T2 construct: source: E. coli, purified (GSTTrap, Superdex 200); not shown: GST, N-terminal, kept

his-sumo-Setdb1(2-115) = biological target: T3, his-sumo-Setdb1(2-115) (human, UniProt Q15047 2-115); assay: AlphaScreen or HTRF; AlphaScreen His-Detection kit: nickel chelate acceptor beads and streptavidin donor beads; both proteins at 20 nM, or one at 20 nM and the other 0 to 20 nM; 50 mM MOPS, 50 mM CHAPS, 50 mM NaF, 100 ug/ml BSA, pH 7; room temperature; triplicates; conditions: both partners purified
T3 construct: also called his-sumo-Setdb1(2-114); source: E. coli (BL21DE3 or Rosetta2), purified (HisTrap, dialysis); not shown: His6, N-terminal, kept; SUMO, N-terminal, kept

[3] = biological target: the molecule itself; assay: SEC; gel filtration of isolated MBP-Atf7IP(574-666) with and without Tween 20 in the buffer
MBP-Setdb1(2-115) [4] = biological target: T1, MBP-Setdb1(2-115); assay: SEC-MALS; co-expressed and purified complex, about 400 ul at about 1 mg/ml, Superdex 200 Increase 10/300; conditions: both partners purified
[5] = biological target: the molecule itself; assay: native MS; co-expressed and purified MBP-Setdb1(2-115)/his-sumo-Atf7IP(574-666) complex, 500 nM, 400 mM ammonium acetate pH 7.9, 1 mM DTT; Q Exactive UHMR; HCD fragmentation
[6] = biological target: the molecule itself; assay: cross-linking; disulfide cross-linking of MBP-Atf7IP(574-666) with only C631, in isolation; SDS-PAGE with and without BME

B1: Atf7IP2(297-388), his-sumo- or Strep-tagged (domain or fragment, UniProt Q5U623 297-388, looked up)
chain: MKTSEQINENICVSLERQTAFLEQVRHLIQQEIYSINYELFDKKLKELNQRIGKTECRNKHEGIADKLLAKIAKLQRRIKTVLLFQRNCLKP
notes: Atf7IP2, coiled coil region, residues 297-388; Two differently tagged copies of one fragment, written as one molecule; in the mixed trimer with Atf7IP only the Strep-tagged copy was there; also called his-sumo-Atf7IP2(297-388); Strep-Atf7IP2(297-388); not shown: His6-SUMO (one copy) or Strep (the other copy), N-terminal, kept
MBP-Setdb1(2-115) [1]
  stoichiometry N: 2 Atf7IP2 per Setdb1

B2: his-sumo-Setdb1(Δα1; residues 35-115) (domain or fragment, human, UniProt Q15047 35-115, looked up)
chain: ISMEELRHFIDEELEKMDCVQQRKKQLAELETWVIQKESEVAHVDQLFDDASRAVTNCESLVKDFYSKLGLQYRDSSSEDE
notes: source: E. coli, purified (HisTrap, dialysis); not shown: His6, N-terminal, kept; SUMO, N-terminal, kept
[2]
  binding, percent of WT: ~80 % of WT

## B3
GST-Setdb1(2-115)
  binding result: binds
his-sumo-Setdb1(2-115)
  binding result: binds
[3]
  binding result: binds

B4: his-sumo-Atf7IP(574-666) (domain or fragment, human, UniProt Q6VMQ6 574-666, looked up)
chain: EEEYEAEFQVKITAKGDINQKLQKVIQWLLEEKLCALQCAVFDKTLAELKTRVEKIECNKRHKTVLTELQAKIARLTKRFEAAKEDLKKRHEH
notes: not shown: His6, N-terminal, kept; SUMO, N-terminal, kept
MBP-Setdb1(2-115) [4]
  stoichiometry N: 2 Atf7IP per Setdb1
[5]
  binding result: binds

B5: MBP-Atf7IP(574-666) C608S C612S (domain or fragment, human, UniProt Q6VMQ6 574-666, looked up)
chain: EEEYEAEFQVKITAKGDINQKLQKVIQWLLEEKLSALQSAVFDKTLAELKTRVEKIECNKRHKTVLTELQAKIARLTKRFEAAKEDLKKRHEH
notes: The methods name the synthesised vector without the MBP tag on Atf7IP; the results call the protein MBP-Atf7IP; also called Atf7IP(C631); source: also used in isolation; not shown: MBP, N-terminal, kept
[6]
  binding result: binds

B6: his-sumo-Setdb1(Δα1-α2; residues 50-115) (domain or fragment, human, UniProt Q15047 50-115, looked up)
chain: KMDCVQQRKKQLAELETWVIQKESEVAHVDQLFDDASRAVTNCESLVKDFYSKLGLQYRDSSSEDE
notes: as for B2
[2]
  binding, percent of WT: ~30 % of WT
